# Laboratory results reported in patent publication US20240309340.
# Residue numbers refer to the chain shown, from its start. Where two headings read alike, the source gives them in different places.
# Columns and labels:
# [1] = molecular target: T1, tsH042' Phi29 DNA polymerase (K143S, sso7d fusion) (Bacillus phage phi29?) (UniProt P03680); details: template aligned length, single molecule sequencing
# T1 sequence: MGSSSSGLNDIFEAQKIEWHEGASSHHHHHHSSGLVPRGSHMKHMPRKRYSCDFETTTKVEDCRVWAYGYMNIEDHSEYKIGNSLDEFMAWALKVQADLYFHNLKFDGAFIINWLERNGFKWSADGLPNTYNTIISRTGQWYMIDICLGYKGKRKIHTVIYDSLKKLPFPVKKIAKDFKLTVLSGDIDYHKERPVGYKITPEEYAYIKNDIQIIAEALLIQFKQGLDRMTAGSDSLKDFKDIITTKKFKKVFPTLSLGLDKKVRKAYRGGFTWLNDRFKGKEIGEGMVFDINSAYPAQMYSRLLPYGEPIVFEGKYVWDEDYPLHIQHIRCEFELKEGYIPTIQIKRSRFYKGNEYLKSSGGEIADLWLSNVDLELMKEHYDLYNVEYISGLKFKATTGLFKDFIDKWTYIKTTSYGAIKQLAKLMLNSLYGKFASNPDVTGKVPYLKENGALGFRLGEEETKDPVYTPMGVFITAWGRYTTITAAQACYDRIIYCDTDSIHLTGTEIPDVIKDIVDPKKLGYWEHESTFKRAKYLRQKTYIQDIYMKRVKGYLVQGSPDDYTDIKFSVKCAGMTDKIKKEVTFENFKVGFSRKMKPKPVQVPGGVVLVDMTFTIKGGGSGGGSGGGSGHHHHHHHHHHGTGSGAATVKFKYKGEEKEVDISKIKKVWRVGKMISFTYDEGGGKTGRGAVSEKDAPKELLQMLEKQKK
# [2] = molecular target: T2, tsH039' Phi29 DNA polymerase (Y148L, sso7d fusion) (Bacillus phage phi29?) (UniProt P03680); details: template aligned length, single molecule sequencing
# T2 sequence: T1 sequence with S184K, Y189L
# [3] = molecular target: T3, tsH034' Phi29 DNA polymerase (K143D, sso7d fusion) (Bacillus phage phi29?) (UniProt P03680); details: template aligned length, single molecule sequencing
# T3 sequence: T1 sequence with S184D
# [4] = tested on: H034 Phi29 DNA polymerase K143D,Y224K,E239G,V250I,L253A,E375Y,A437G,A484E,E508R,D510K,K512Y,E515Q,D570M (Bacillus phage phi29?); details: conversion of modified dNTPs; 5 mM Mg(OAc)2
# [5] = tested on: H022 Phi29 DNA polymerase Y224K,E239G,V250I,L253A,E375Y,K379S,A437G,A484E,E508R,D510K,K512Y,E515Q,D570M (Bacillus phage phi29?); details: conversion of modified dNTPs; 5 mM Mg(OAc)2
# [6] = tested on: H019 Phi29 DNA polymerase Y224K,E239G,V250I,L253A,E375A,A437G,A484E,E508R,D510K,K512Y,E515Q,D570M (Bacillus phage phi29?); details: conversion of modified dNTPs; 5 mM Mg(OAc)2
# [7] = tested on: H020 Phi29 DNA polymerase Y224K,E239G,V250I,L253A,E375S,A437G,A484E,E508R,D510K,K512Y,E515Q,D570M (Bacillus phage phi29?); details: conversion of modified dNTPs; 5 mM Mg(OAc)2
# [8] = tested on: H004 Phi29 DNA polymerase Y224K,E239G,V250I,L253A,E375Y,A437G,A484E,E508R,D510K,K512Y,E515Q,D570M (Bacillus phage phi29?); details: conversion of modified dNTPs; 100 pM primer/template, 300 pM protein, 5 mM Mg(OAc)2, 10 mM DTT, 30 min; Table 5 gives 19.9%
# [9] = tested on: G087 Phi29 DNA polymerase Y148L Y148L (Bacillus phage phi29?); experiment: cleavage_in_vitro; details: RCA +++
# [10] = tested on: G077 Phi29 DNA polymerase D145A D145A (Bacillus phage phi29?); experiment: cleavage_in_vitro; details: RCA +++
# [11] = tested on: H022 Phi29 DNA polymerase Y224K,E239G,V250I,L253A,E375Y,K379S,A437G,A484E,E508R,D510K,K512Y,E515Q,D570M (Bacillus phage phi29?); experiment: cleavage_in_vitro; details: RCA ++++
# [12] = tested on: H004 Phi29 DNA polymerase Y224K,E239G,V250I,L253A,E375Y,A437G,A484E,E508R,D510K,K512Y,E515Q,D570M (Bacillus phage phi29?); experiment: cleavage_in_vitro; details: primer hydrolysed in 2 min
# [13] = tested on: G075 Phi29 DNA polymerase K143D K143D (Bacillus phage phi29?); experiment: cleavage_in_vitro; details: RCA +++
# [14] = tested on: G059 Phi29 DNA polymerase E14I E14I (Bacillus phage phi29?); experiment: cleavage_in_vitro; details: RCA +++
# [15] = tested on: H019 Phi29 DNA polymerase Y224K,E239G,V250I,L253A,E375A,A437G,A484E,E508R,D510K,K512Y,E515Q,D570M (Bacillus phage phi29?); experiment: cleavage_in_vitro; details: RCA ++++
# [16] = tested on: H020 Phi29 DNA polymerase Y224K,E239G,V250I,L253A,E375S,A437G,A484E,E508R,D510K,K512Y,E515Q,D570M (Bacillus phage phi29?); experiment: cleavage_in_vitro; details: RCA ++++
substance,measurement,setting,value
circular DNA template with primer (single molecule sequencing),activity,[1],342 bases
same,activity,[2],436 bases
same,activity,[3],282 bases
primer/template (modified dNTP conversion),activity,[4],5.4%
same,activity,[5],32.5%
same,activity,[6],22.2%
same,activity,[7],46.2%
same,activity,[8],48.4%
fluorescent-labelled primer (exonuclease substrate),activity,[9],34.5%
same,activity,[10],68.6%
same,activity,[11],62.2%
same,activity,[12],38%
same,activity,[13],37.5%
same,activity,[14],52.6%
same,activity,[15],39.1%
same,activity,[16],56.5%
